The target of test [1] is T1, recombinant human IL-25 protein (human, UniProt Q9H293 33-177).
T1 sequence: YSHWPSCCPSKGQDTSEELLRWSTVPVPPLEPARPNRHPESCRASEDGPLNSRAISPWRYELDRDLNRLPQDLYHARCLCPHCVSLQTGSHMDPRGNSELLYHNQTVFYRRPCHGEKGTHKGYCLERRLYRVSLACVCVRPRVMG
Nature of the test: cell-based or functional assay.

Test [2] concerns the target T1, recombinant human IL-25 protein. Nature of the test: cell-based or functional assay. This is another data set of the same source.
Test [3] has the same target. Nature of the test: cell-based or functional assay. The source holds these as a separate data set.
For test [4] the target is unchanged. Nature of the test: BLI (Octet), antibody captured on anti-human Fc biosensor, human IL-25 as analyte. On the procedure: The binding kinetics of the disclosed anti-IL-25 antibodies to recombinant human IL-25 was determined by Octet® Bio-Layer Interferometry (BLI) systems by Sartorius. The assay uses anti-IL-25 monoclonal antibodies as the ligand and recombinant human IL-25 protein as the analyte.
Briefly, the assays were performed by first capturing 5 μg/ml of anti-IL-25 antibodies using anti-human Fc Octet biosensors. The mAb-captured biosensors were then submerged in wells containing serially diluted human IL-25 for 4-6 minutes, followed by a 10-15 minute dissociation time. The binding sensorgrams were collected and analyzed by the Octet Data Analysis software.
(BLI is a label-free optical method that tracks binding on a fibre tip over time.)

Test [5] deals with T2, recombinant cynomolgus IL-25 protein (cynomolgus monkey, UniProt Q9H293 33-177 (human entry), limits assumed).
T2 construct: Bought (Sino Biological Inc, customized order); also called cyno IL-25
T2 chain: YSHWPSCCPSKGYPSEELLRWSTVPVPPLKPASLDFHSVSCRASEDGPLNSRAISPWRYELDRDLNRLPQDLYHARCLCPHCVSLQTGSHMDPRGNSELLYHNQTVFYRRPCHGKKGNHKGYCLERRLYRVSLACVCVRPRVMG
Nature of the test: ELISA: recombinant cynomolgus IL-25 coated on the plate, detection with goat-anti-human Kappa Light Chain antibody HRP, ABTS, OD 405. On the procedure:
In another study, the ability of five disclosed anti-IL-25 antibodies (IL25Ab1 to Ab5) binding to cynomolgus IL-25 was evaluated using ELISA. Briefly, recombinant human IL-25 protein (Acro, catalog no: IL5-H4221, lot no: 401-20CNF1-UT) or recombinant cynomolgus IL-25 protein (Sino Biological Inc, catalog no: customized order, lot no: MB17MA2715) was directly coated to ELISA plates, respectively. Recombinant antibodies were then added to the plates followed by detection using goat-anti-human Kappa Light Chain antibody HRP (Novus, catalog no: NBP1-75064, Lot no: 68-188-010920). After the addition of ABTS (Moss Inc., catalog no: ABTS-1000, Lot no: 03086202) substrate, ELISA plates were read using an ELISA plate reader (Bioteck).

The target of test [6] is T1, recombinant human IL-25 protein. Nature of the test: ELISA, IL-25 coated, goat anti-human IgG-HRP detection. Here is the method: (§1) In this study, the ability of five disclosed anti-IL-25 antibodies (IL25Ab1 to Ab5) binding to both human and mouse IL-25 was evaluated using ELISA. Briefly, recombinant human IL-25 protein (Acro, catalog no: IL5-H4221, lot no: 401-20CNF1-UT) or recombinant mouse IL-25 protein (Sino Biological Inc, catalog no: 50138-M07H, lot no: LC15AP0607) was directly coated to ELISA plates, respectively. Recombinant antibodies were then added to the plates followed by detection using goat-anti-human IgG-HRP (Jackson ImmunoResearch, catalog no: 109-035-098, Lot no: 157400). After the addition of ABTS (Moss Inc., catalog no: ABTS-1000, Lot no: 03086202) substrate, ELISA plates were read using an ELISA plate reader (Bioteck).
Background: ELISA stands for enzyme-linked immunosorbent assay.

Test [7] has as its target T3, recombinant mouse IL-25 protein (mouse, UniProt Q8VHH8 17-169).
T3 construct: Bought (Sino Biological Inc, catalog no: 50138-M07H)
T3 sequence: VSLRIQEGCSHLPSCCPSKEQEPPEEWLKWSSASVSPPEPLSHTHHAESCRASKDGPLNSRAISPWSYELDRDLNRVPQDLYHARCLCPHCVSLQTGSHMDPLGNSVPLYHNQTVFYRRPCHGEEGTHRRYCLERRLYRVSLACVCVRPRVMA
Described as above. Here is the method:
as §1

The target in test [8] is T1, recombinant human IL-25 protein. Description: ELISA, IL-25 coated, goat anti-human kappa light chain-HRP detection. Here is the method: (§2) In this study, the ability of three humanized anti-IL-25 antibodies generated in hIgG1 (IL25Ab6 to Ab8) and hIgG1 YTE formats (IL25Ab9 to Ab11) binding to both human, mouse and cynomolgus IL-25 was evaluated using ELISA. Briefly, recombinant human IL-25 protein (Acro, catalog no: IL5-H4221, lot no: 401-20CNF1-UT), recombinant mouse IL-25 protein (Sino Biological Inc, catalog no: 50138-M07H, lot no: LC15AP0607) or recombinant cynomolgus IL-25 protein (Sino Biological Inc, catalog no: customized order, lot no: MB17MA2715) was directly coated to ELISA plates, respectively. Recombinant antibodies were then added to the plates followed by detection using goat-anti-human Kappa Light Chain antibody HRP (Novus, catalog no: NBP1-75064, Lot no: 68-188-010920). After the addition of ABTS (Moss Inc., catalog no: ABTS-1000, Lot no: 03086202) substrate, ELISA plates were read using an ELISA plate reader (Bioteck).

For test [9], the target named is T3, recombinant mouse IL-25 protein. The test is described as above. Here is the method: as §2
The target in test [10] is T2, recombinant cynomolgus IL-25 protein. Described as above. Here is the method:
as §2

Test [11] deals with T1, recombinant human IL-25 protein. Nature of the test: cell-based or functional assay. The source holds these as a separate data set.
Test [12] shares this target. Description: cell-based or functional assay. This is another data set of the same source.
Test [13] has the same target. Nature of the test: cell-based or functional assay. The source holds these as a separate data set.

Where two headings read alike, the source gives them in different places.

B1: IL25Ab2 (antibody, V domains shown)
VH: QVTLKESGPGILQPSQTLSLTCSFSGFSLSTSGMGVGWIRQPSGKGLEWLAHIWWDDVKQYNPALQSRLTISKDTSSSQVFLKIASVDIADIATYYCARIGPVHHGFPYWGQGALVTVSS
VL: QIVLTQSPAIMSAFPGEKVTMSCSASSSVNYMYWHQQKPGSSPRLLIYDTSNLASGVPVRFSGSGSGTSYSLTISRMEAEDAATYYCQQWTSYPPMYTFGGGTKLEIK
By Kd is commonly meant the constant that tells how readily two partners part at equilibrium. The koff is a measure of how fast the partners let go of each other. One may read the kon as the rate constant with which the complex forms. Usually EC50 (read off the curve) stands for the concentration needed to bring the measured effect to its halfway point. As usually defined, the EC50 is the concentration needed to bring the measured effect to its halfway point. Take B1: the “IC50, IL-25 induced IL-5 production in human PBMC” value (“IC50 … in human PBMC” below) in test [1] was found to be 0.14 nM. In addition, the “IC50, IL-25 induced CXCL1 production in HT-29 cells” value (from here on “IC50 … in HT-29 cells”) in test [2] came to 0.089 nM. Moreover, the “IC50, IL-25 induced NF-kB signaling (SEAP) in HEK-Blue IL-17 reporter cells” value (“IC50, IL-25 induced NF-kB signaling” below) in [3] was 0.068 nM. For the same molecule, in test [4], the Kd is less than 0.001 nM, the koff is less than 1e-07 s⁻¹ and the kon is 1.36e+06 M⁻¹ s⁻¹. The “EC50 (read off the curve)” value in test [5] was roughly 0.1 nM. The EC50 in [6] is 0.017 nM. In test [7], the EC50 was found to be 0.012 nM.

B2: IL25Ab1 (antibody, V domains shown)
VH: QVQLKESGPGLVAPSQSLSITCTVSGFSLTDYGINWVRQPPGKGLEWLGMIWGDGVTHYNSVLKSRLSISKDNSMSQIFLKMNSLQTDDTARYYCARTLFYDGTLYYYAMDYWGQGTSVTVSS
VL: QIVLTQSPATMSASPGEKVTMTCSASSSVTYMYWYQQKTGSSPRLLIYDTPNLASGVPVRFSGSGSGTSYSLTISRVEAEDAATYYCQQWSSYPHTWTFGGGTKLEIK
As for B2, the “IC50 … in human PBMC” value in test [1] came out at 0.12 nM. In addition, the “IC50 … in HT-29 cells” value in test [2] is 0.071 nM. In addition, in test [3], the “IC50, IL-25 induced NF-kB signaling” value turned out to be 0.052 nM. Moreover, in test [4], the Kd was less than 0.001 nM, the koff was less than 1e-07 s⁻¹ and the kon turned out to be 1.25e+06 M⁻¹ s⁻¹. The “EC50 (read off the curve)” value in [5] is roughly 0.1 nM. Moreover, the EC50 in [6] turned out to be 0.02 nM. Further, in [7], the EC50 was found to be 0.015 nM.

B3: IL25Ab3 (antibody, V domains shown)
VH: EVQLQQSGPELVKPGGSVRISCKASGYSFTGYTMNWVKQSHGKNLEWIGLINPDNGGTSHKQRFMGKATLTVDKSSSTAYMELLSLTSEDSAVYYCAREGYYGPSPFHHYAMDYWGQGTSVTVSS
VL: DIQMTQTTSSLSASLGDRVTISCSASQDISNYLNWYQQKPDGTIKLLIYYTSTLHSGVPSRFSGSGSGTDYSLTISNLEPEDIATYYCQQYSKLPYTFGGGTKLEIK
notes: detected with anti-human IgG or anti-human kappa reagents; also called anti-IL-25Ab3; mouse origin of anti-IL-25 specific antibody
Regarding B3, the EC50 worked out at 0.506 nM in [8]; 0.39 nM in test [9]; 0.364 nM in [10]; 0.022 nM in test [6]; 0.013 nM in test [7]. The “IC50 … in human PBMC” value in [1] came out at 0.16 nM; in test [13], 0.302 nM. Moreover, the entries for the “IC50 … in HT-29 cells” value in test [11] and in [2] were 0.144 nM and 0.067 nM, respectively. The “IC50, IL-25 induced NF-kB signaling” value was 0.037 nM in [12] and 0.049 nM in [3]. For the same molecule, in [4], the Kd was less than 0.001 nM. Moreover, the koff in test [4] is less than 1e-07 s⁻¹. In addition, in test [4], the kon turned out to be 875000 M⁻¹ s⁻¹. For the same molecule, in test [5], the “EC50 (read off the curve)” value was roughly 0.1 nM.

B4: IL25Ab4 (antibody, V domains shown)
VH: QVTLKESGPGILQPSQTLSLTCSFSGFSLSTSGMGVSWIRQPSGKGLEWLAHIYWDDAKFYNPSLKSRVTISKDTSRNQVFLRITSVDTADIATYYCARRGYDNYGGFVDWGQGTLVTVSS
VL: ENVLIQSPAIMSASLGEKVTMSCRASSSVNYMYWYQQKSDAPPKLWIYYTSNLAPGVPGRFSGSGSGNSYSLTISSMEGEDAATYYCQQFTSYPYMYTFGGGTKLEIK
For B4, the “IC50 … in human PBMC” value in [1] was 0.15 nM. The “IC50 … in HT-29 cells” value in test [2] worked out at 0.076 nM. Further, in test [3], the “IC50, IL-25 induced NF-kB signaling” value came out at 0.073 nM. In addition, in test [4], the Kd was less than 0.001 nM, the koff is less than 1e-07 s⁻¹ and the kon was determined as 1.2e+06 M⁻¹ s⁻¹. For the same molecule, the “EC50 (read off the curve)” value in test [5] is roughly 0.1 nM. Also, the EC50 in test [6] was 0.034 nM. For the same molecule, in [7], the EC50 stood at 0.026 nM.

B5: IL25Ab5 (antibody, V domains shown)
VH: QVQLQQWGAGLLKPSETLSLTCAVYGGSFSAYYWSWIRQSPGKGLEWIGEINHGGNTNYSPSLKSRVTISVDTSKSQFSLKLSSVTAADTAAYYCARGPGITSWAFDFWDQGTMVTVSS
VL: DIQMTQSPSSLSASVGDRVTIACQASQDINNYLNWYQQKPGKAPKLLIYDASNLETGVPSRFSGNGSGTDFTFTISSLQPEDIATFYCQQYDTLPYTFGQGTKLEIR
Take B5: the “IC50 … in human PBMC” value in test [1] was 0.26 nM. Besides, in [2], the “IC50 … in HT-29 cells” value turned out to be 0.077 nM. The “IC50, IL-25 induced NF-kB signaling” value in test [3] worked out at 0.061 nM. Further, in [4], the dissociation constant (Kd) is less than 0.001 nM, the koff was less than 1e-07 s⁻¹ and the kon was determined as 2.48e+06 M⁻¹ s⁻¹. Also, in [5], the “EC50 (read off the curve)” value was roughly 0.2 nM. The EC50 in [6] amounted to 0.01 nM. The EC50 in test [7] was 0.035 nM.
